{"source": "patent US6713276B2", "about": "“Modulation of Aβ levels by β-secretase BACE2” (Scios, Inc., priority 2000, dated 2004)", "key": {"[1]": {"system": "APP751sw processing in HEK293T cells", "assay": "pulse-chase / pulse-labeling and immunoprecipitation of APP CTFs, Aβ and p3 in HEK293T cells", "format": "cell-based, human", "method": "Forty eight hours post-transfection, HEK293T cells were labeled for 15 minutes with 200 μCi Promix L [^35S] in vitro cell labeling mix (Amersham) and chased for up to 90 minutes according to standard procedures. APP CTFs were immunoprecipitated with antibodies 369 (Cai et al., Science 259: 514-516 [1993]). For immunoprecipitations of Aβ and p3 from conditioned medium, HEK293T cells were labeled for 5 hours with 300 μCi Promix L [^35S] in vitro cell labeling mix (Amersham) 48 hours post-transfection. Aβ40 and Aβ42 as well as the corresponding p3 species were immunoprecipitated with monoclonal antibodies 1702.1 and 108.1, respectively (Higaki et al., J. Med. Chem. 42: 3889-3898 [1999]).\nTo analyze the metabolism of APP as a consequence of BACE or BACE2 overexpression we performed a parallel pulse-chase experiment (FIG. 2e). HEK293T cells transfected as above were pulse-labeled and chased for up to 90 minutes and APP and CTFs were immunoprecipitated. […] An alternative β-secretase related cleavage product (β′-CTF) was also formed consistent with previous reports (Vassar et al., Science [1999] ibid; Higaki et al., Neuron 14: 651-659 [1995]). Consistent with its β-secretase activity, BACE2 overexpression led to a significant initial increase in β-CTF levels compared to mock-transfected cells. […] In general, BACE2 might have increased the overall APP turnover. To determine whether BACE affected γ-secretase activity, we determined whether p3 could be formed. We transfected HEK293 cells as in FIG. 2e and labeled them for 5 hours with Promix L [^35S]. Aβ from conditioned medium was then precipitated with antibodies directed against the C-terminal residues of Aβ40 and Aβ42, respectively, that also recognize p3 (FIG. 2f). […] Taken together, BACE2 expression leads to alternative processing of APP that precludes Aβ formation."}, "[2]": {"system": "CT100 (C-terminal 100 amino acids of APP) processing in HEK293T cells", "assay": "co-transfection with CT100 in HEK293T cells, ELISA, Western blot, pulse-chase", "format": "cell-based, human", "settings": "for CTFs derived from CT100 (α-like CTF): HEK293 cells, CT100, Western blot and pulse-chase 90 minutes", "method": "Expression vectors containing BACE and BACE2 cDNAs were transfected into HEK293T cells in the presence of APP751sw or CT100 (Shoji et al., Science 258: 126-129 [1992]; Lichtenthaler et al., Proc. Natl. Acad. Sci. USA 96: 3053-3058 [1999]). Transfections were performed in 24 well plates using Lipofectamine Plus (Gibco/BRL, Bethesda, Md.) and DNA concentrations were kept constant by including non-specific DNA. Expression plasmids were tested for BACE and BACE2 expression by Western blotting. Cell culture supernatants were collected 48 hours and 72 hours post-transfection, and assayed for α-NTF, β-NTF and Aβ formation. β-NTF measurement was performed as described below. α-NTF was captured like β-NTF but was detected with biotinylated 2H3 (Johnson-Wood et al., Proc. Nati. Acad. Sci. USA 94: 1550-1555 [1997]). Aβ levels were determined by an ELISA using monoclonal antibodies 266 for capture and biotinylated 3D6 for detection (see Johnson-Wood et al., [1997] ibid for antibody epitope description). Aβ42, in contrast, was captured using 21F 12 and detected with biotinylated 3D6. Cell extracts prepared 72 hour post-transfection were separated by SDS-PAGE (Novex) and probed with CT695 (Zymed) for APP and CTFs as well as with an Aβ specific monoclonal antibody WO2 (kindly provided by K. Beyreuther; Ida et al., J. Biol. Chem. 271: 22908-22914 [1996]). […]\nThis effect prompted investigation into whether β-secretase cleavage was required for Aβ suppression. The effects of BACE2 on the metabolism of the C-terminal 100 amino acids of APP (CT100), a construct that mimics prior β-secretase cleavage (Shoji et al., Science 258: 126-129 [1992]), was analyzed. […] Cells were readiolabeled with ^35S-methionine/cysteine for 15 minutes after which the medium containing radiolabel was removed and replaced with standard medium. […] Over this 90-minute period, samples were taken and assessed for CTFs by immunoprecipitation. […]"}, "[3]": {"settings": "HEK293 cells, labeled for 5 hours, conditioned medium"}}, "data": [{"molecule": "BACE2: human aspartyl protease, close homolog of BACE (SEQ ID NO: 2), expressed from pcDNA3.1(−)/BACE2 in transfected cells (protein) MGALARALLLPLLAQWLLRAAPELAPAPFTLPLRVAAATNRVVAPTPGPGTPAERHADGLALALEPALASPAGAANFLAMVDNLQGDSGRGYYLEMLIGTPPQKLQILVDTGSSNFAVAGTPHSYIDTYFDTERSSTYRSKGFDVTVKYTQGSWTGFVGEDLVTIPKGFNTSFLVNIATIFESENFFLPGIKWNGILGLAYATLAKPSSSLETFFDSLVTQANIPNVFSMQMCGAGLPVAGSGTNGGSLVLGGIEPSLYKGDIWYTPIKEEWYYQIEILKLEIGGQSLNLDCREYNADKAIVDSGTTLLRLPQKVFDAVVEAVARASLIPEFSDGFWTGSQLACWTNSETPWSYFPKISIYLRDENSSRSFRITILPQLYIQPMMGAGLNYECYRFGISPSTNALVIGATVMEGFYVIFDRAQKRVGFAASPCAEIAGAAVSEISGPFSTEDVASNCVPAQSLSEPILWIVSYALMSVCGAILLVLIVLLLLPFRCQRRPRDPEVVNDESSLVRHRWK", "values": [{"measurement": "APP CTF turnover (β-CTF, β′-CTF, α-CTF)", "setting": "[1]; HEK293T, APP751sw, 15 min pulse, chase up to 90 minutes", "value": "strong accumulation of a cleavage product that based on size and gel migration corresponded to α-CTF"}, {"measurement": "formation of Aβ40 and Aβ42 (immunoprecipitation)", "setting": "[1]; [3]", "value": "interfered with the formation of both Aβ40 and Aβ42"}, {"measurement": "p3 formation", "setting": "[1]; [3]", "value": "p3 levels were not significantly affected"}, {"measurement": "total Aβ and Aβ42 levels in conditioned medium", "setting": "[2]; HEK293T, co-transfected with CT100", "value": "dramatic suppression of total Aβ as well as Aβ42 levels"}, {"measurement": "CTFs derived from CT100 (α-like CTF)", "setting": "[2]", "value": "accumulation of the α-like CTF"}]}, {"molecule": "BACE2 D110A: single D110A BACE2 mutant of a critical aspartate residue, made by site-directed mutagenesis (protein) ALEPALASPAGAANFLAMVDNLQGDSGRGYYLEMLIGTPPQKLQILVATGSSNFAVAGTPHSYIDTYFDTERSSTYRSKGFDVTVKYTQGSWTGFVGEDLVTIPKGFNTSFLVNIATIFESENFFLPGIKWNGILGLAYATLAKPSSSLETFFDSLVTQANIPNVFSMQMCGAGLPVAGSGTNGGSLVLGGIEPSLYKGDIWYTPIKEEWYYQIEILKLEIGGQSLNLDCREYNADKAIVDSGTTLLRLPQKVFDAVVEAVARASLIPEFSDGFWTGSQLACWTNSETPWSYFPKISIYLRDENSSRSFRITILPQLYIQPMMGAGLNYECYRFGISPSTNALVIGATVMEGFYVIFDRAQKRVGFAASPCAEIAGAAVSEISGPFSTEDVASNCVPAQSLSEPILWIVSYALMSVCGAILLVLIVLLLLPFRCQRRPRDPEVVNDESSLVRHRWK", "values": [{"measurement": "CTFs derived from CT100 (α-like CTF)", "setting": "[2]", "value": "unable to convert APP CT100 to an α-CTF-like fragment"}]}]}
